The results in this text go back to patent US8440629B2.

What is called Kd is the constant that tells how readily two partners part at equilibrium.

In assay [1] the target is VLDLR CR6-8 (human) (UniProt P98155). The assay is described as follows: solid-phase binding assay, immobilised CR protein, anti-RAP detection.
Assay [2] concerns the target LRP6 CR12 (human) (UniProt O75581). The description is as above.
In assay [3] the target is LRP6 CR23 (human) (UniProt O75581). The assay is described as above.
Assay [4] addresses LRP6 CR1-3 (human) (UniProt O75581). The description is as above.
Assay [5] deals with VLDLR CR78 (human) (UniProt P98155). The assay is described as above.
Assay [6] concerns the target full-length LRP1 expressed on CHO-K1 cells.
For assay [7], the target named is recombinant mouse VLDLR ectodomain (mouse) (UniProt P98156). Kind of assay: solid-phase binding assay, immobilised receptor, streptavidin-HRP detection, EDTA-corrected.

For the substance RAP d3 (ligand), the Kd in assay [1] is over 300 nM. Besides, the binding as percent of that for LRP1 CR3-5 in assay [2], in assay [3], in assay [4] and in assay [5] was under 5% in each case.

Substance “mRAPc combined with streptavidin-saporin conjugate” returned a viable cell number (MTT assay, 48 hours) in assay [6] of 40%.

Take “tag-free RAP d3 peptide linked to maleimide-PEO2-biotin (ligand)”: in assay [7], the Kd turned out to be 1 nM.
